A word on the Km: it is the concentration of substrate that gives half-maximal velocity. By kcat is commonly meant the maximal rate divided by the concentration of active sites.

What all share (test): DMS production by GC, nonlinear fit of initial rates
Type in all cases: biochemical, Psychrobacter sp.

Substrate in data set [1]: C[S+](C)CCC(=O)[O-]
As to conditions: co-substrates ATP and CoA, pH 8.5, 40 °C.

Substrate in data set [2]: CC(C)(COP(=O)(O)OP(=O)(O)OC[C@H]1O[C@@H](n2cnc3c(N)ncnc32)[C@H](O)[C@@H]1OP(=O)(O)O)[C@@H](O)C(=O)NCCC(=O)NCCS
The note with it: co-substrates DMSP and ATP, pH 8.5, 40 °C.

Substrate in data set [3]: Nc1ncnc2c1ncn2[C@@H]1O[C@H](COP(=O)(O)OP(=O)(O)OP(=O)(O)O)[C@@H](O)[C@H]1O
As to conditions: co-substrates DMSP and CoA, pH 8.5, 40 °C.

B1: DddX (Psychrobacter sp.) (protein)
chain: LTGQIIEYTIKIQTIYTGNFKHKNGFLKMIERGIAMKKENLKILAKKAQTIAIVGANYRFATRVLLENLDKMDFTGTIYLVNPRYENIDGVRCYQSLLEIEDTIDVVVGLVNPQLMIQVASNASKINAKVLVIPGGGYGESGVEGQNIQNAILERAADSGMRIVGPNCMGYLNMHAQFTPYIGTLHRPLRPIKKGPVSIISQSGSVNDAFIASKLGISKIYSTGNEADVQMHDYLNLLAEDPETSVIILYIEAIRNHLSFLRALDLCSKNKKPVIAIKVGRTIKSAAVANAHSGALAGDYEIEKLFLEGHGVLFVEDIDQAVAVALLLSQPYLPTVNTVAALTVSGGQAGILLDLAEDYGVDFPDFSAVTNYEIASKLPELGGLSNPLDIWGKSSKDFSEVSNICLSSIVKDADIGIITVAIDAPIGQGDHEFDFTSIPAKDLASLRGNSDKPFLYFSHIQTEFDPRVESILDEAGIAVIQGSRNALVACRALFKYKEFLEKNNHTPIYSVEDLSIQKGLKLLHDNEGRKLLDESGFVSPREQVVTSLQEGVDYAESIGYPVVLKAQGLAHKTDVGGVALNIKSAAKLKKAWGKMEHLNSPYYLIQEMVTDGFETILAYRTDMNYGPVVIFGLGGIYTELFNEVVLAVPPITHKKAEQMVKSIPMLWKSIEGYRGNPALDLEALTASIVQMGETAMEKYEEIVEFEINPLSVRVKGVVALDVLASVKTTAAKEADAEEADVKKCSELV
notes: full length (2247 bp gene), pET-22b, C-terminal His tag, E. coli BL21(DE3); dimer in solution
With B1, the values for the Km in data set [1], in data set [2] and in data set [3] were 400 µM, 400 µM and 2500 µM, respectively. Moreover, the kcat in data set [1] was found to be 0.7 s⁻¹.

The values are drawn from paper PMC8163506, “A novel ATP dependent dimethylsulfoniopropionate lyase in bacteria that releases dimethyl sulfide and acryloyl-CoA” (eLife, 2021).
